Reference: US20050251885A1, “Method for enhancing yield of recombinant protein production from plants” (UNIVERSITE LAVAL, priority 2002, published 2005)

Test system: alfalfa leaf proteases (fraction #8)
Assay: Fibronectin proteolysis by alfalfa leaf Mono-Q fraction #8 with protease inhibitors, immunodetection
Assay type: biochemical, alfalfa (cultivar Saranac)
Conditions: for proteolysis of fibronectin by the Mono-Q fraction in presence of inhibitor: 5 μl fraction #8, 350 ng fibronectin, 37° C., 15 min, FIG. 5B
Experimental: Firstly, a protein extract from alfalfa leaves was separated by chromatography to isolate a specific fraction containing the greatest protease activity. Alfalfa (cultivar Saranac) leaves were extracted by grinding in liquid nitrogen and resolubilization in 50 mM Tris-HCl, pH 6,8, containing 10 mM β-mercaptoethanol. The crude extract was centrifuged for 15 min at 10000 g at 4° C., and the supernatant was filtered through a 0.3 μm pore size filter. Fifteen mg of leaf proteins were then loaded on of a Mono-Q FPLC column (Pharmacia) equilibrated with extraction buffer. Proteins were eluted with a linear gradient of KCl (0 to 0.7 M) in extraction buffer, at a flow rate of 2 ml/min. Fractions of 500 μl were collected, and sample of each fraction was loaded onto a gelatin/PAGE gel (FIG. 5A). Fraction #8, which caused the highest proteolysis of gelatin in gel, was use to assess the protective effect of α-1 antichyinotrypsin.
Secondly, the identified fraction #8 was used in conjunction with various protease inhibitors to identify potential candidates for the inhibition of fibronectin proteolysis. In the experiment illustrated in FIG. 5B, 5 μl of fraction #8 was mixed with 350 ng of fibronectin and incubated at 37° C. for 15 min, in the presence of 2 μl H2O (lane 2), 2 μl of 10 mM chymostatin (lane 3) or 2 μl α-1 antichymotrypsin (lane 4). The control (lane 1) contained 5 μl extraction of buffer instead of alfalfa proteases. The reaction was stopped after 15 min. and fibronectin was immunodetected as in FIG. 1C. […] Note that both protein (α-1 antichymotrypsin) and chemical (chymostatin) molecules were efficient to decrease degradation of fibronectin.

In the case of `CC(C)C[C@H](NC(=O)[C@@H](NC(=O)N[C@@H](Cc1ccccc1)C(=O)O)[C@@H]1CCN=C(N)N1)C(=O)N[C@H](C=O)Cc1ccccc1` [chymostatin, reference compound], the “proteolysis of fibronectin by the Mono-Q fraction in presence of inhibitor” value is reported as “prevented”.

B1: α-1 antichymotrypsin: human serpin, inhibitor of chymotrypsin-like proteases (protein, UniProt P01011 24-423, looked up)
Alpha-1-antichymotrypsin: HPNSPLDEENLTQENQDRGTHVDLGLASANVDFAFSLYKQLVLKAPDKNVIFSPLSISTALAFLSLGAHNTTLTEILKGLKFNLTETSEAEIHQSFQHLLRTLNQSSDELQLSMGNAMFVKEQLSLLDRFTEDAKRLYGSEAFATDFQDSAAAKKLINDYVKNGTRGKITDLIKDLDSQTMMVLVNYIFFKAKWEMPFDPQDTHQSRFYLSKKKWVMVPMMSLHHLTIPYFRDEELSCTVVELKYTGNASALFILPDQDKMEEVEAMLLPETLKRWRDSLEFREIGELYLPKFSISRDYNLNDILLQLGIEEAFTSKADLSGITGARNLAVSQVVHKAVLDVFEEGTEASAATAVKITLLSALVETRTIVRFNRPFLMIIVPTDTQNIFFMSKVTNPKQA
With B1 the “proteolysis of fibronectin by the Mono-Q fraction in presence of inhibitor” value was “prevented” and the “stability of fibronectin on inhibiting alfalfa proteases” value (FIG. 5) was “significantly increased”.
